We go through twelve molecules from PMC4258113 (Journal of proteome research, 2013).

The chains are these.
T1: GST-tagged chromodomain (a.a. 1-90) of Drosophila melanogaster polycomb protein (Drosophila melanogaster, UniProt P26017 1-90)
T1 sequence (looked up): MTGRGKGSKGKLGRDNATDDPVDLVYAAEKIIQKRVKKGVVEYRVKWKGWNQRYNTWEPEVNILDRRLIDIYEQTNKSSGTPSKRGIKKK

Where no end group is shown, it is not given here. Me3 = trimethyl-lysine (trimethylated lysine)

The test addresses T1, GST-tagged chromodomain (a.a. 1-90) of …. Nature of the test: peptide or protein array.
For the molecule PRKQLATK(Me3)A [trimethylated histone peptide PRKQLATKA (H3.3, lysine site 23)], the binding result was “binds”.

As to LATKAARK(Me3)S [trimethylated histone peptide LATKAARKS (H3.3, lysine site 27)], the binding result is on record as “binds”.

As to DSGKAKAK(Me3)A [trimethylated histone peptide DSGKAKAKA (H2AV, lysine site 15)], the binding result is “binds”.

RIHRLLRK(Me3)G [trimethylated histone peptide RIHRLLRKG (H2A1A, lysine site 35)]: the binding result was “binds”.

Regarding GRIHRHLK(Me3)S [trimethylated histone peptide GRIHRHLKS (H2AZ, lysine site 37)], the binding result is “binds”.

As to IQAVLLPK(Me3)K [trimethylated histone peptide IQAVLLPKK (H2A1 and other H2A, lysine site 117)], the binding result is “binds”.

Consider ASKDLKVK(Me3)R [trimethylated histone peptide ASKDLKVKR (H2AZ, H2AV, lysine site 79)], for which the binding result is recorded as “binds”.

For GGAKRHRK(Me3)V [trimethylated histone peptide GGAKRHRKV (H4, lysine site 20)], the binding result is “binds”.

As to RTKQTARK(Me3)S [trimethylated histone peptide RTKQTARKS (H3.3, lysine site 9)], the binding result is given as “binds”.

EGTKAVTK(Me3)Y [trimethylated histone peptide EGTKAVTKY (H2B1A and other H2B, lysine site 117)]: the binding result is listed as “binds”.

Consider REIRRYQK(Me3)S [trimethylated histone peptide REIRRYQKS (H3.3, lysine site 56)], for which the binding result was “binds”.

Regarding MDVVYALK(Me3)R [trimethylated histone peptide MDVVYALKR (H4, lysine site 91)], the binding result was “binds”.
